In patent publication US12458618B2, “Compounds and methods for the detection of TRPV-6 cancers and drug delivery” (Soricimed Biopharma Inc., priority 2009, dated 2025):
Where no end group is shown, it is not given here. Cy5.5 maleimide = Cy5.5 label attached to cysteine thiol by maleimide-activated reaction

Assays:
[1] = target: T1, TRPV6 (Homo sapiens, UniProt Q9H1D0); test: Equilibrium dissociation constant (Kd) in an LNCaP model; format: binding; parameters: endogenous in cells; host or cells: LNCaP
T1 sequence (Q9H1D0 1-765): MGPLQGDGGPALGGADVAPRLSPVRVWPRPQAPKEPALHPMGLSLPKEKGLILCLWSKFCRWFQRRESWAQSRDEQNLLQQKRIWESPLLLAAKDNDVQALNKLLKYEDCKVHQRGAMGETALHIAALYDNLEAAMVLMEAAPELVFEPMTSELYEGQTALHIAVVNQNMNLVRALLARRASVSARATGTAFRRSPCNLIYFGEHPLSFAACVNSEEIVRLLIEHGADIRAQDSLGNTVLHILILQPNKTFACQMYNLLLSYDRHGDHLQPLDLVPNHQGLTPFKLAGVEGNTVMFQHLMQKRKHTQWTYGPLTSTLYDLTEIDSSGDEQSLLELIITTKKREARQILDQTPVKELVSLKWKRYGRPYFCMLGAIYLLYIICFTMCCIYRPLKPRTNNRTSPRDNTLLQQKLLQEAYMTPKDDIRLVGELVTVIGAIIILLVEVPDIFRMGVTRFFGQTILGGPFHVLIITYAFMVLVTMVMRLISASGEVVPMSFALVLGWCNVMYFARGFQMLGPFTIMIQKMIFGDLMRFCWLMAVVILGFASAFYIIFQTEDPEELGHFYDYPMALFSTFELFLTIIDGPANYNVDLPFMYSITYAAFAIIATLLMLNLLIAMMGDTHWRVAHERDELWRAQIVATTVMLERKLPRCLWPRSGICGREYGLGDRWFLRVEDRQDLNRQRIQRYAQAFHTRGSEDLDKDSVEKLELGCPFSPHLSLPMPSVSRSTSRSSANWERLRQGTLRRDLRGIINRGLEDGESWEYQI
Source text: As noted above, a TRPV6-binding peptide of the invention will have calcium channel binding activity. The peptides having such activity are readily identified with any known assays suitable for measuring binding of the peptides with TRPV6. For example, in one embodiment, a peptide having calcium channel inhibition activity is optionally identified by determining that the peptide reduces calcium channel activity by reducing (i.e., partially or fully inhibiting) the flow of calcium through calcium channels. TRPV6-binding activity can also be measured using methods such as: internalized calcifluors (such as FURA-2 am); whole cell patch clamping to measure inhibition calcium currents electrophysiologically; equilibrium binding assays using peptides labeled with detectable tags such as radioactive or fluorescent tags; and/or NMR determination of ‘bound’ and ‘unbound’ peptides. In some embodiments, the TRPV6-binding peptides also have i) calcium channel blocking and ii) lack of paralytic activity.
Calcium channel binding activity is optionally identified by using a readily available cell line (e.g. human embryonic kidney cell lines-HEK293) transfected with an expression vector for TRPV6. Such transfected cells are readily aliquoted and stored (typically −80° C.) until required. […]

[2] = Tissue distribution of Cy5.5-labeled peptides after i.v. injection, optical imaging; format: in vivo, CD1 mice
Source text: SorC13 and SorC27 were labeled with the near-infrared probe, Cy5.5. SorC13 was labeled at lysine-1 and lysine-8 with the infrared fluorescent probe cy5.5 through reaction with Cy5.5 NHS ester-activated process. SorC27 was labeled at the single cysteine thiol with Cy5.5 maleimide-activated reaction. The labeled peptides were purified with a combination of size exclusion chromatography and HPLC. The label, Cy5.5, fluoresces in the infra-red region after excitation with a scanning laser. The low energy laser is able to penetrate the animal to about 1 cm and, thus, by scanning prone and supine positions, the presence of the tagged peptides can be quantified in three dimensions.
Cy5.5-labeled peptides were intravenously injected into CD1 mice (4 for each compound) at 100 μg per animal in 100 μL, and animals were imaged live using an optical imaging system, Optix explorer (GE Healthcare Systems) at different time points (30 min, 90 min, 4 h). […] The bio-distribution of the labeled peptides in different organs and tissues were visualized and relatively quantified by optical imaging analysis. This protocol allows for visualization of the location of the labeled peptides and how the location changes over time. […] Nodes that accumulated the labeled peptides are indicated by line 1 (superfacial cervical nodes), line 4 (axillary nodes), line 5 (brachial nodes), line 8 (mesenteric nodes) and line 9 (inguinal nodes). FIGS. 2, 3 and 4 show the amounts of labeled peptides in various organs ex vivo.

[3] = target: T1, TRPV6; test: Co-localization with TRPV6 antibody in HEK-293 cells transfected with a TRPV6 expression vector; format: cell-based
Procedure: HEK-293 cells were transfected with a TRPV6 expression vector and incubated with fluorescently labeled antibodies to the N-terminal peptides of TRPV6 as well as fluorescently labeled SorC27 (SorC27-cy5.5). HEK-293 cells that were not transfected with a TRPV6 expression vector were also incubated with fluorescently labeled anti-TRPV6 and SorC27-cy5.5 as a negative control (FIG. 6A).

[4] = test system: TRPV6-rich ovarian (SKOV-3 cells) tumors; test: Localization of SorC27-cy5.5 to xenografted ovarian tumors in vivo (optical imaging); parameters: species or system nude CD1 mice; conditions: 100 μg intraperitoneally, SKOV-3 ovarian xenograft
Procedure: (§1) Mice xenografted with a TRPV6-rich ovarian (SKOV-3 cells) and prostate (DU145 cells) tumors were injected (intraperitoneally) with the fluorescently-labeled TRPV6-binding peptide SorC27-cy5.5. SorC27 was labeled with the near-infrared probe Cy5.5 at the single cysteine thiol using a Cy5.5 maleimide-activated reaction. The labeled peptides were purified with a combination of size exclusion chromatography and HPLC. Cy5.5, fluoresces in the infra-red region after excitation with a scanning laser. The low energy laser is able to penetrate the animal to about 1 cm and, thus, by scanning, the presence of the tagged peptides can be quantified in three dimensions. Cy5.5-labeled peptides were intraperitoneally injected into nude CD1 mice at 100 μg per animal, and animals were imaged live using an optical imaging system, Optix explorer (GE Healthcare Systems) at different time points (30 min, 90 min, 4 h).

[5] = test system: prostate (DU145 cells) tumors; test: Localization of SorC27-cy5.5 to xenografted prostate tumors in vivo (optical imaging); parameters: species or system nude CD1 mice; conditions: 100 μg intraperitoneally, DU145 prostate xenograft
Procedure: as §1

[6] = test system: ovarian TRPV6-rich tumor (SKOV-3 cells); test: SorC27-cy5.5 in mice xenografted with SKOV-3 tumor (Example 9); format: in vivo; conditions: SKOV-3 xenograft
Procedure: Mice xenografted with an ovarian TRPV6-rich tumor (SKOV-3 cells) are injected with the fluorescently-labeled TRPV6-binding peptide SorC27-cy5.5.

[7] = target: T1, TRPV6; test: Co-localization of SorC27-cy5.5 and fluorescently labeled TRPV6 antibodies in cancer cell lines; format: cell-based; parameters: endogenous in cells; host or cells: PC-3, T 47D, SKOV-3
Source text: The level of TRPV6 immunofluorescence and SorC27-cy5.5 fluorescence are both increased in the transfected cells with increased TRPV6 expression shown in the B1-B3 series of FIG. 7 compared to the cells in the A1-A3 series of FIG. 7.
The level of TRPV6 immunofluorescence and SorC27-cy5.5 fluorescence are both increased in the transfected cells with greater TRPV6 expression shown in the B1-B3 series of FIG. 8 compared to the cells in the A1-A3 series of FIG. 8.
The level of TRPV6 immunofluorescence and SorC27-cy5.5 fluorescence are both increased the transfected cells with greater TRPV6 expression shown in the B1-B3 series of FIG. 9 compared to the cells in A1-A3 series of FIG. 9.

[8] = target: T1, TRPV6; test: Fluorescently tagged peptide on staged tumor tissue micro-arrays (Example 7); parameters: from tissue; host or cells: ovarian cancer tumour sections on tissue micro-arrays; conditions: Stage I to Stage IV tissue micro-arrays
Procedure: Fluorescently tagged TRPV6-binding peptides are useful to determine the stage of a tumor by direct incubation of Tissue Micro-Arrays (TMA) with the peptide reagent. SorC27-cy5.5 compound is incubated with cells from a subject and fluorescence levels are compared to levels from control staged tumor samples.

Row | Substance | Kd [1] | predominant tissue localization ([2]; 100 μg i.v., CD1 mice, imaging up to 4 h) | detectability in tissues after perfusion ([2]; 24 hours, after perfusion to remove blood and lymph) | accumulation in lymph nodes (superfacial cervical, axillary, branchial, mesenteric, inguinal) ([2]; four hours after i.v. injection of 100 μg) | fluorescence in non-transfected cells (negative control) ([3]; HEK293 cells not transfected with the TRPV6 expression vector) | binding to TRPV6 (co-localization with anti-TRPV6) ([3]; HEK-293 cells transfected with TRPV6 expression vector) | time tumor is clearly detected in vivo after injection [4] | time tumor is clearly detected in vivo after injection [5] | detection of xenografted tumor by fluorescence [6] | SorC27-cy5.5 fluorescence in TRPV6-transfected versus non-transfected cells ([7]; PC-3) | SorC27-cy5.5 fluorescence in TRPV6-transfected versus non-transfected cells ([7]; SKOV-3) | SorC27-cy5.5 fluorescence in TRPV6-transfected versus non-transfected cells ([7]; T 47D) | co-localization with TRPV6 antibody ([7]; breast cancer cell line T 47D) | co-localization with TRPV6 antibody ([7]; ovarian cancer cell line SKOV-3) | co-localization with TRPV6 antibody ([7]; prostate cancer cell line PC-3) | fluorescent signal with tumor stage [8]
1 | HPSKVDLPR [SorC9, HPSKVDLPR] | ~0.09 µM | – | – | – | – | – | – | – | – | – | – | – | – | – | – | –
2 | SorC27-cy5.5: SorC27 labeled at the single cysteine thiol with Cy5.5 maleimide-activated reaction (EGKLSSNDTEGGLC(Cy5.5 maleimide)KEFLHPSKVDLPR) | – | localize predominantly in lymph nodes, lung, liver and kidney | still detectable in these tissues | Significant accumulation | no fluorescence | bound to TRPV6 | at least 24 hours | at least 24 hours | detected in vivo | increased | increased | increased | co-localization of SorC27-cy5.5 and TRPV6 | co-localization of SorC27-cy5.5 and TRPV6 | co-localization of SorC27-cy5.5 and TRPV6 | increase in the intensity of the fluorescent signal
